Laboratory results as given in US20140363495A1 (US Dept. of Health and Human Services, published 2014).

B1: P1172 (peptide)
peptide: ALAIVYLIAL
notes: Synthetic 10-mer, purity >90%; also called Native 432
B2: VNTR-5 (agonist) (peptide)
peptide: YLDTRPAPV
notes: Synthetic analog with substitutions at positions 1, 2 and 9; also called pVNTR5; pVNTR-5
B3: VNTR-2 (peptide)
peptide: STAPPAHGV
notes: Synthetic 9-mer; also called pVNTR2; VNTR-2 (native)
B4: VNTR-4 (peptide)
peptide: APDTRPAPG
notes: Synthetic 9-mer; also called pVNTR4; VNTR-4 (native)

Target: T1, HLA-A2 molecules on T2A2 cells (human)
T1 construct: whole, on cells; also called class I molecules
Test: flow cytometry, upregulation of HLA-A2 on T2A2 cells, peptide 12.5 µg/mL
Method: *Peptides were used at a concentration of 12.5 μg/mL. ^{#}Results expressed as mean fluorescence intensity (MFI). NGEP (P703) peptide is an HLA-A2-binding peptide. CAP-7 peptide is an HLA-A3-binding CEA peptide

T2 Binding (MFI)	Binder
326 MFI	SLSYTNPAV (Synthetic 9-mer) [P1240]
342 MFI	YLSYTNPAV [P1240(1Y)]
211 MFI	YLIALAVCQC (Synthetic 10-mer) [P1177]
299 MFI	YLIALAVCQV [P1177(10V)]
249 MFI	B1
245 MFI	YLAIVYLIAL [P1172(1Y)]

Target: T1, HLA-A2 molecules on T2A2 cells
Test: flow cytometry, upregulation of HLA-A2 on T2A2 cells, peptide 25 µg/mL
Method: *Peptides were used at a concentration of 25 μg/mL. ^{#}Results expressed as mean fluorescence intensity (MFI).

T2A2 Binding (MFI)	Binder
486 MFI	YLAPPAHGV (also called pVNTR3; pVNTR-3) [VNTR-3 (agonist)]
647 MFI	B2
169 MFI	STAPPAHNV (Synthetic 9-mer; also called pVNTR1) [VNTR-1]
166 MFI	B3
210 MFI	B4
